From PMC4423210, “Ubiquitination of the Dishevelled DIX domain blocks its head-to-tail polymerization” (Nature Communications, 2015)

Assays:
[1] = target: the molecule itself; assay: crystal structure; hDvl2 DIX-Y27D, 40% PEG400, 0.1 M Tris pH 8.5, 0.2 M LiSO4, 19 °C; helical filament in the crystal
[2] = target: the molecule itself; assay: SEC-MALS; loading concentration 10 μM (reduced ∼10x during SEC); Superdex-75 HR10/300, 20 mM Tris pH 7.4, 200 mM NaCl, 0.01% NaN3; self-association, apparent molecularity
[3] = target: the molecule itself; assay: SEC-MALS; loading concentration 50 μM (reduced ∼10x during SEC); Superdex-75 HR10/300, 20 mM Tris pH 7.4, 200 mM NaCl, 0.01% NaN3; self-association, apparent molecularity
[4] = target: the molecule itself; assay: SEC-MALS; highest loading concentration (235 μM DIX, ∼160 μM DIX54-Ub or DIX58-Ub; reduced ∼10x during SEC); Superdex-75 HR10/300, 20 mM Tris pH 7.4, 200 mM NaCl, 0.01% NaN3; self-association, apparent molecularity

B1: hDvl2 DIX domain bearing the polymerization-deficient mutation M4 (Y27D) (domain or fragment, human)
chain: GETKVIYHLDEEETPDLVKIPVPAERITLGDFKSVLQRPAGAKYFFKSMDQDFGVVKEEISDDNARLPCFNGRVVSWLVSSDNPQPEMAPPVHEPR
notes: DIX domain of human Dishevelled-2 (hDvl2) with Y27D; Crystallised at 50 mg/ml; forms a helical head-to-tail filament in the crystal; also called hDvl2 DIX-Y27D; source: E. coli BL21-CodonPlus(DE3)-RIL, purified (Ni-NTA, TEV, gel filtration, anion exchange); not shown: 6xHis, N-terminal, cleaved
binding result [1]: binds

B2: DIX domain of human Dvl2 (hDvl2), unmodified (domain or fragment, UniProt O14641 11-93, looked up)
chain: VGETKVIYHLDEEETPYLVKIPVPAERITLGDFKSVLQRPAGAKYFFKSMDQDFGVVKEEISDDNARLPCFNGRVVSWLVSSD
notes: DIX domain of human Dishevelled-2 (hDvl2); Codon-optimised synthetic gene in pCDF-PylT; PDB 4WIP holds the Y27D mutant of the hDvl2 DIX domain; also called unmodified DIX; hDvl2 DIX domain; not shown: His6, N-terminal, cleaved
stoichiometry N [2]: 2 | stoichiometry N [3]: 3 | stoichiometry N [4]: > 84 monomers
